Assay results: US20030113325A1 (CHILDREN S MEDICAL CENTER, published 2003)

B1: AP-OMgp fusion protein (ligand, mouse, UniProt Q63912 25-417, looked up)
chain: ICPLQCTCTERHRHVDCSGRNLTTLPPGLQENIIHLNLSYNHFTDLHNQLTPYTNLRTLDISNNRLESLPAQLPRSLWNMSAANNNIKLLDKSDTAYQWNLKYLDVSKNMLEKVVLIKNTLRSLEVLNLSSNKLWTVPTNMPSKLHIVDLSNNSLTQILPGTLINLTNLTHLYLHNNKFTFIPEQSFDQLLQLQEITLHNNRWSCDHKQNITYLLKWVMETKAHVIGTPCSKQVSSLKEQSMYPTPPGFTSSLFTMSEMQTVDTINSLSMVTQPKVTKTPKQYRGKETTFGVTLSKDTTFSSTDRAVVAYPEDTPTEMTNSHEAAAATLTIHLQDGMSSNASLTSATKSPPSPVTLSIARGMPNNFSEMPRQSTTLNLRREETTANGNTRPPS
notes: Secreted from COS-7 cells and purified on nickel-agarose; about 180 kDa; The order of the parts follows the name AP-OMgp; not shown: alkaline phosphatase (AP) reporter of expression vector AP-5 (Flanagan and Cheng, 2000)
B2: GST-NgR fusion protein containing the entire extracellular domain of NgR (receptor, UniProt Q9BZR6 27-447, looked up)
chain: CPGACVCYNEPKVTTSCPQQGLQAVPVGIPAASQRIFLHGNRISHVPAASFRACRNLTILWLHSNVLARIDAAAFTGLALLEQLDLSDNAQLRSVDPATFHGLGRLHTLHLDRCGLQELGPGLFRGLAALQYLYLQDNALQALPDDTFRDLGNLTHLFLHGNRISSVPERAFRGLHSLDRLLLHQNRVAHVHPHAFRDLGRLMTLYLFANNLSALPTEALAPLRALQYLRLNDNPWVCDCRARPLWAWLQKFRGSSSEVPCSLPQRLAGRDLKRLAANDLQGCAVATGPYHPIWTGRATDEEPLGLPKCCQPDAADKASVLEPGRPASAGNALKGRVPPGDSPPGNGSGPRHINDSPFGTLPGSAEPPLTAVRPEGSEPPGFPTSGPRRRPGCSRKNRTRSHCRLGQAGSGGGGTGDSEGS
notes: extracellular domain; not shown: glutathione S-transferase (GST) fusion partner

Legend:
[1] = target: T1, Nogo-66 receptor (NgR), full-length, expressed on transfected cells (human, UniProt Q9BZR6 27-447); assay: saturation analysis of AP-OMgp binding to N2A cells transfected with NgR cDNA, bound AP activity
T1 construct: whole, on cells; The species of the NgR on the CHO cells is not restated; also called Nogo receptor
T1 sequence (looked up): B2 chain
Excerpt: (§1) We next took advantage of AP-OMgp binding to identify cell surface OMgp-binding proteins by expression cloning (He & Tessier-Lavigne, 1997; Flanagan and Cheng, 2000; Fournier et al., 2001). Pools of a complementary DNA expression library from adult human brain, representing approximately 250,000 independent clones, were transfected into COS-7 cells and screened for the presence of cells that bound AP-OMgp. […] After screening several rounds of subpools, we isolated two cDNAs that encoded the OMgp-binding proteins. […] We next performed coimmunoprecipitation experiments by incubating GST or a GST-NgR fusion protein containing the entire extracellular domain of NgR (GST-NgR) with AP or AP-OMgp.
Cell surface binding and expression cloning were performed as described previously (He and Tessier-Lavigne, 1997). To detect AP-OMgp binding, cultures were washed with binding buffer (Hanks balanced salt solution containing 20 mM Hepes, pH 7.5, and 1 mg/ml bovine serum albumin (BSA)). The plates were then incubated with AP-OMgp-containing binding buffer for 75 min at room temperature. After extensive washing and heat inactivation, bound AP fusion proteins were detected by AP staining using NBT and BCIP as substrate. For saturation analysis, we disrupted cells and detected bound AP fusion proteins using […] as substrate.

AP = target: T2, AP (UniProt P05187 23-511, limits assumed); assay: coimmunoprecipitation of GST or GST-NgR with AP or AP-OMgp
T2 construct: Control in the coimmunoprecipitation; also called alkaline phosphatase; AP alone
T2 sequence (P05187 23-511 limits assumed): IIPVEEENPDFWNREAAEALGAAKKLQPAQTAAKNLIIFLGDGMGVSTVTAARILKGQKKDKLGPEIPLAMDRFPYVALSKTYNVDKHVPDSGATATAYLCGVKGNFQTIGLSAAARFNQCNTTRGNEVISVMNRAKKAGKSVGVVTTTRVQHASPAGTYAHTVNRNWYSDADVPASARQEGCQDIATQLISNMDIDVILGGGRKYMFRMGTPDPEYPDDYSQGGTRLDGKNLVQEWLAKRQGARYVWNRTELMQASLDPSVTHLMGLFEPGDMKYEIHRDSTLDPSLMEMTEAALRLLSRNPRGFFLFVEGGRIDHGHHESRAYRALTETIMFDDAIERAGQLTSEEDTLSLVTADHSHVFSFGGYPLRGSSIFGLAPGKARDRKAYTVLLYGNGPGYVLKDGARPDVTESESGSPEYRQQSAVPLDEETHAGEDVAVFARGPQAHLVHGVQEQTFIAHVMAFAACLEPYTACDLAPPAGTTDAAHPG
Excerpt: as §1

Binder | Kd [1] | binding result (AP)
B1 | 5 nM | 
B2 |  | no binding
